The test has as its target p62 (UniProt Q13501). The test can be described thus: co-IP of stathmin-GFP with Flag-p62. Particulars: reference: wild type stathmin-GFP; sites S63.

For “stathmin (from UniProt P16949) S63A stathmin-GFP”, the “binding against the reference” value is recorded as “weaker”.

The values above are taken from PMC8105298.
